Measured values reported in the Immune Epitope Database (IEDB).

Legend:
HLA-B*40:01 = assay: IEDB peptide-MHC binding, purified MHC/competitive/radioactivity; filed as Kd, often an IC50 or EC50 that approximates it; ≥ and ≤ were set here for values at or beyond the usual limits of such assays
HLA-B*44:02 = assay: as above
HLA-B*44:03 = assay: as above
HLA-A*26:01 = assay: as above
HLA-A*01:01 = assay: as above
HLA-A*29:02 = assay: as above
HLA-A*30:01 = assay: as above
HLA-A*32:01 = assay: as above
HLA-A*30:02 = assay: as above
HLA-A*02:01 [1] = assay: IEDB peptide-MHC binding, purified MHC/competitive/fluorescence; filed as Kd, often an IC50 or EC50 that approximates it; ≥ and ≤ were set here for values at or beyond the usual limits of such assays
HLA-A*23:01 = assay: IEDB peptide-MHC binding, purified MHC/competitive/radioactivity; filed as Kd, often an IC50 or EC50 that approximates it; ≥ and ≤ were set here for values at or beyond the usual limits of such assays
HLA-A*24:02 = assay: as above
HLA-B*07:02 = assay: as above; settings: source organism: Dengue virus 2 Jamaica/1409/1983
HLA-B*53:01 = assay: as above; settings: source organism: Dengue virus 2 Jamaica/1409/1983
HLA-B*51:01 = assay: as above; settings: source organism: Dengue virus 2 Jamaica/1409/1983
HLA-A*02:01 [2] = assay: as above
[3] = source organism: Dengue virus 4 Philippines/H241/1956
[4] = source organism: Mammarenavirus whitewaterense
[5] = source organism: Dengue virus 1 Singapore/S275/1990
[6] = source organism: Dengue virus 2 Jamaica/1409/1983
[7] = source organism: SARS coronavirus Tor2
[8] = source organism: Mammarenavirus brazilense
[9] = source organism: Mammarenavirus lassaense
[10] = source organism: Dengue virus 3 Martinique/1243/1999

VEMGEAAAIF
Kd (HLA-B*40:01; [3]): 971 nM
Kd (HLA-B*44:02; [3]): 12.9 nM
Kd (HLA-B*44:03; [3]): 166 nM

YVSSIFLHL
Kd (HLA-A*26:01; [4]): 1850 nM
Kd (HLA-A*01:01; [4]): 514 nM
Kd (HLA-A*29:02; [4]): 15.7 nM
Kd (HLA-A*30:01; [4]): 4820 nM
Kd (HLA-A*32:01; [4]): ≥ 51000 nM
Kd (HLA-A*30:02; [4]): 12500 nM

KEISNMLNI
Kd (HLA-B*40:01; [5]): 191 nM
Kd (HLA-B*44:02; [5]): 74.6 nM
Kd (HLA-B*44:03; [5]): 68.7 nM

MLWTTDKHV
Kd (HLA-A*02:01 [1]; source organism: Human alphaherpesvirus 1 strain 17): 1290 nM

LEHGSCVTTM
Kd (HLA-B*40:01; [6]): 64.8 nM
Kd (HLA-B*44:03; [6]): 1080 nM

QFKDNVILL
Kd (HLA-A*26:01; [7]): ≥ 27500 nM
Kd (HLA-A*01:01; [7]): ≥ 51800 nM
Kd (HLA-A*29:02; [7]): ≥ 21700 nM
Kd (HLA-A*23:01; [7]): 1150 nM
Kd (HLA-A*30:02; [7]): ≥ 40000 nM
Kd (HLA-A*24:02; [7]): 1130 nM

VPSIKAGNDI
Kd (HLA-B*07:02): 2130 nM
Kd (HLA-B*53:01): ≥ 59800 nM
Kd (HLA-B*51:01): 8470 nM

VSSPDAVTTY
Kd (HLA-A*26:01; [7]): 3700 nM
Kd (HLA-A*01:01; [7]): 223 nM
Kd (HLA-A*29:02; [7]): 1840 nM
Kd (HLA-A*23:01; [7]): ≥ 70000 nM
Kd (HLA-A*30:02; [7]): 11.3 nM
Kd (HLA-A*24:02; [7]): ≥ 70300 nM

NENDQYIYM
Kd (HLA-B*44:02; [6]): 25.5 nM
Kd (HLA-B*44:03; [6]): 208 nM

EALRGFLLY
Kd (HLA-A*26:01; [8]): 1580 nM
Kd (HLA-A*01:01; [8]): 3730 nM
Kd (HLA-A*29:02; [8]): 117 nM
Kd (HLA-A*30:01; [8]): 5720 nM
Kd (HLA-A*32:01; [8]): ≥ 60200 nM
Kd (HLA-A*30:02; [8]): 2270 nM

NERRAWNFL
Kd (HLA-B*44:03; [3]): 2090 nM

ALFYKDGKL
Kd (HLA-A*02:01 [1]; source organism: Variola major virus): 533 nM

AGFSAGLTY
Kd (HLA-A*26:01; [9]): ≥ 77900 nM
Kd (HLA-A*01:01; [9]): ≥ 23900 nM
Kd (HLA-A*29:02; [9]): 63.6 nM
Kd (HLA-A*23:01; [9]): ≥ 43800 nM
Kd (HLA-A*30:02; [9]): 528 nM
Kd (HLA-A*24:02; [9]): ≥ 77500 nM

LLNATDIAVA
Kd (HLA-A*02:01 [2]; source organism: Human immunodeficiency virus 1): 427 nM

DLFATQPGL
Kd (HLA-A*02:01 [2]; source organism: Lassa virus Josiah): 12500 nM

NEGVMAVGL
Kd (HLA-B*40:01; [10]): 226 nM
Kd (HLA-B*44:03; [10]): 1810 nM

NAWKVSCTI
Kd (HLA-B*53:01): 36 nM
Kd (HLA-B*51:01): 55.3 nM

WMMAMRYPITA
Kd (HLA-A*02:01 [1]; source organism: Influenza A virus (A/chicken/Fujian/25/00(H9N2))): 1.5 nM
